From paper PMC3581365 (The Journal of Biological Chemistry, 2013) come the findings set out here.

Test [1] has as its target T1, HP0892 fused with His tag at the C terminus (HP0892-His) (H. pylori 26695, UniProt O25552 1-90).
T1 sequence: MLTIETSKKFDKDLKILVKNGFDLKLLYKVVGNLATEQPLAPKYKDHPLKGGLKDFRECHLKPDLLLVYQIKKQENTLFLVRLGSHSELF
The test is described as follows: NMR titration.

The target in test [2] is T2, HP0893 expressed as a C-terminal His tag fusion (HP0893-His) (H. pylori 26695, UniProt O25553 1-95).
T2 sequence (looked up): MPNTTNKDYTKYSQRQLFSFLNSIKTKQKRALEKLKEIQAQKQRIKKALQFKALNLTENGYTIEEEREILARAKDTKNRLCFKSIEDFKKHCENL
The test is described as follows: pull-down.

As usually defined, the stoichiometry N is the number of molecules, sites or subunits per partner or assembly. EREILARAKDTKNRLCFKSIEDFKKHCENL (peptide, UniProt O25553 66-95, looked up) [HP0893Ctp, 30-residue peptide corresponding to the C-terminal region (Glu-66 to Leu-95) of HP0893]: the “stoichiometry N” value in test [1] is 1.

B1: HP0892 without any purification tag or non-native residues (natural protein, H. pylori 26695, UniProt O25552 1-90, looked up)
chain: MLTIETSKKFDKDLKILVKNGFDLKLLYKVVGNLATEQPLAPKYKDHPLKGGLKDFRECHLKPDLLLVYQIKKQENTLFLVRLGSHSELF
In the case of B1, in test [2], the “stoichiometry N” value was determined as 1.
